Reference: article PMC9693254
Residue numbers refer to the chain shown, from its start. In names and notes the source's numbering stands.

B1: cocoonase (CCN), mature form (Bombyx mori; K85G) (protein)
chain: IVGGEEISINKVPYQAYLLLQKDNEYFQCGGSIISKRHILTAAHCIEGISGVTVRIGSSNSNKGGTVYTAKSKVAHPKYNSKTKNNDFAIVTVNKDMAIDGKTTKIITLAKEGSSVPDKTKLLVSGWGATSEGGSSSTTLRAVHVQAHSDDECKKYFRSLTSNMFCAGPPEGGKDSCQGDSGGPAVKGNVQLGVVSFGVGCARKNNPGIYAKVSAAAKWIKST
B2: cocoonase (CCN), mature form (Bombyx mori; K153G/K155A/K85G) (protein)
chain: B1 chain with K119G, K121A

Substrate: CCOC(=O)[C@H](CCCNC(=N)N)NC(=O)c1ccccc1
Test: purified protein
Conditions: 50 mM Tris/HCl pH 8.0, 25 mM NaCl, 1 mM EDTA, 25 °C, substrate 25–100 μM, apparent Km, numbering of proCCN
[1] = CCN' auto-processed from proCCN'
[2] = mature CCN' prepared from [K8D,K63G,K131G,K133A]-proCCN (K8D lies in the removed propeptide,

Protein | Km | Vmax | Km [1] | Vmax [1] | Km [2] | Vmax [2]
B1 | 400 µM | 0.006 µM/min |  |  |  | 
B2 |  |  | 370 µM | 0.0084 µM/min | 920 µM | 0.0276 µM/min
